Measured values from the nanobody polyreactivity screen of Harvey et al. (2022).

Assay: yeast display, Sf9 membrane polyspecificity reagent, FACS + sequencing; frameworks hold sequencing errors
Outline: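 Galactose-induced (36–48 hours) yeast carrying a synthetic nanobody display library were exposed to 10% biotinylated, detergent-solubilized Sf9 membrane reagent at 4 °C for 1 hour. FACS followed streptavidin microbead enrichment, using low and high (top ~1%) gates for expression (anti-HA) and reagent binding (streptavidin). Colony PCR, MiSeq 2 × 250 sequencing and CDR-length filtering followed. Labels for polyreactivity reflect the gate of origin.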

Row | Sequence | polyreactivity (PSR sort gate)
1 | QVQLVESGGGLVQAGGSLRLSCAASGSIFARYTMGWYRQAPGKERELVASITWRTGSTYYADSVKGRFTISRDNAKNTVYLQMNSLKPEDTAVYYCNKAYTITQYGWIPLGYWGQGTQVTVSS | high polyreactivity
2 | QLQLVESGGGLVQAGGSLRLSCAASGSTFGPYTMGWYRQAPGKERELVATISSGGSTYYADSVKGRFTISRDNAKNTVYLQMNSLKPEDTAVYYCAARYWSIYDYWGQGTQVTVSS | low polyreactivity
3 | QVQLVESGGGLVQAGGSLRLSCAASGRTFKIHAMGWYRQATGKERELVAAISTSGGSTYYADSVKGRLTISRDNAKNTVYLQMNSLKPEDTAVYYCNAPVFRVGRPEYDYWGQGTQVTVSS | high polyreactivity
4 | QVQLVESGGGLVQAGGSLRLSCAASGSIFSIYAMGWYRQAPGKERELVAAISWSGGSTYYADSVKGRFTISRDTAKITVYLQMNSLKPEDTAVYYCAAEYEYMWSQYLTEYGYDYWGQGTQVTVSS | low polyreactivity
5 | QVQLVESGGGLVQAGGSLRLSCAASGITFKTYAMGWYRQAPGKVRELVATITRGSRTNYADSVKGRFTISRDNAKNTVYLQMNSLKREHTAVYYCAAHYTTFIRSPDGDYLGQGTQVTVSS | low polyreactivity
6 | QVQLVESGGGLVQAGGSLRLSCAASGSIFGDYVMGWYRQAPGKERELVAAITFGGGRTYYADSVKGRFTISRDNAKNTVYLQMNSLKPEDTAVYYCAVSRKGLGSVEYWGQGTQVTVSS | low polyreactivity
7 | QVQLVDSGGGLVQAGGSLRLSCSASGFTFKYYAMGWYRQAPGKERELVASINWSGGRTSYADSVKGRFTISRDNAKNTVYLQMNSQKPEDTAVYYCARTPAGRGEYWGQGTQVTVSS | low polyreactivity
8 | QVQLVESGGGLVQAGGSLRLSCAASGSTFDRYAMGWYRQAPGKERELVAAITRGGSTYYADSVKGRFTISRDNAKNTVYLQMNSLKPEDTAVYYCAARYRAYVKLTSYDWGQGTQVTVSS | high polyreactivity
9 | QVQLVESGGGLVQAGGSLRLSCAASGFTFSWYAMGWYRQAPGKETELVAAITRSGGSTNYADSVKGRFTISRDNAKNTVYLQMNSLKPEDTAVYYCNAAGYRRSTWWYDYWGQGTQVTVSS | high polyreactivity
10 | QVQLVESGGGLVQAGGSLLLSCAASGRILWRYAMGWYRQARGKERELVAGITYSGGRTYYADSVKVRFTISRDNAKNTVYLQMNSLKPEDTAVYYCNADYADSPYFYLLLDYWGQGTQVTVSS | low polyreactivity
11 | QVQLVESVGCLVQAGGSLRLSCATSGSIFRYYTMGWYRQPPGKERELVARISSSGSTNYADSVKGRFTISRDNGKNTVYLQMNSLKPEDTAVYYCAARGFSWAGYFYWGQGTQVTVSS | low polyreactivity
12 | QVQVVDSGGGLVQAGGSLSLSCAASGSIFIYYAMGWYRQAPGKERELVAVINDDGSTNYADSVKGRFTISRDNAMNTVYLQMNSLKPEDTAVYYCNTTIGTYYSPSDYWGQGTQVTVSS | low polyreactivity
13 | QVQLEESGGGLVQAGGSLRLSCAASGFTFYSYAKGCSRQAPGKERELVAAISWSGSRTYYADSVKGRFTISRDNAKNTVYLQMNSLKPEDTAVYVCNKYLPRHRYDFDYWGQGTQVTVSS | high polyreactivity
14 | QVQLVESGGGLVQAGGSLRLSCAASGSIIFSYAMGWYRQAPGKEREFVAAITGSGGSTYYADSVKGRFTISRDNAKNTVYLQMNSLKPEDTAVYYCARPQWRDWYGYWGQGTQVTVSS | low polyreactivity
15 | QVQLVESGGGLVQAGGSLRLSCAATGSTFIDNARGWYRQAPGKERELVAAINSSGGNTYYADSVKGRFTISRDNAKNTVYLQMNSLKPEDTAVYYCNAEFSVLYFYDYEYWGQGTQVTVSS | low polyreactivity
16 | QVQLVESGGGLVQAGGSLRLSCAASGRTFKYNAMGWYIQAPGKERELVAAISSRGGSTYYADSVKGRFTISRDNAKNTVYLQMNSLKPEDTAVYYCAKATSSSEYGYDYWGQGTQVTVSS | high polyreactivity
17 | QVQLVESGGVLVQAGGSLRLSCAASGRIFSYYAMGWYRQAPGKERELVARITSRGASTYYADSVKGRFTISRDNAKNTVYLQMNSLKPEDTAVYYCAARKDSTRRFDYWGQGTQVTVLS | high polyreactivity
18 | QVQLVESCGGLVQAGGSLRLSCAASGGTFGFYAMGWYRQAPGKERELVAAISRRGGSTYYADSVKGRFTISRDNAKNTVYLQMNSLKPEDTAVYYCAARVYRYRHYDYWGQGTQVTVSS | high polyreactivity
19 | QVQLVESGGGLVQAGGSLRLSCAASGRTFTIYAMGWYRQAPGKEREFVASITGSDGSTYYADSVKGRFTISRDNAKNTVYLQMNSLKPEDTAVYYCAAKRYVYPSYRFDYWGQGTQVTVSS | low polyreactivity
20 | QVQLVESGGGLVQAGASHRLSCAASGSTFRYNSMGSYRQAPGKERELVAAISRGGSTNYADSVNGRFTISRDNANNTVYLQMISLKPEATAVYYCAASGTRQEYDYWGQGTQVTVSS | high polyreactivity
21 | QVPLVESGGGLVQAGGSLRLSCAASGFIFPNYVMGWYRQEPGKEREFVAGISVRGGRTYYADSVKGRFTISRDNAKNTVYLQMNSLKPEDTAVYYCAADRKASAFNYWGQGTQVTVSS | high polyreactivity
22 | QVQLVDSGGGLVQAGGSLRLSCAASGSTIVYYAKGWYRHAPGKERELVAVISDDGGTYYADSVKGRFTISRDNAKNTVYFQMNSLKPEDTAFYYCAKDYYGGAYYWYNDRSGDYWGQGTQVTVSS | low polyreactivity

Row | Sequence | polyreactivity (PSR sort gate)
23 | QVQLVESGGGLVQAGGSLRLSCAASGSIFTPYAMGWYRQAPGKERELGATISWSGGRTYYADSVKGRFTISRDNAKNTVYLQMNSLKPEDSAVYYCAARGYSSEYDYWGQGTQVTVSS | high polyreactivity
24 | QVQLVESGGGLVQAGGSLRLSCAASGFTFRANGMGWYRQATGKERELVATITSGGTTNYADSVKGRFTISRDNAKNTVYLQMNSLKPEDTAVYYCAKRFGPAYFRLYDYWGQGTQVTVSS | low polyreactivity
25 | QVQLVESGGGLVQAGGSLRLSCAASGGIFRVYAMGWYRQAPGKERELVAAISRSGSSTYYADSVKGRFTISRDNAKNTVYLQMTSLKPEDTAVYYCNAYSQYWLGNNYWGQGTQVTLSS | high polyreactivity
26 | QVQLVESGGGLVQAGGRLRLSCAASGFTFGWNAMGWYRQAPGKEREMVASIYSGDSTYYADSVKGRFTISRDNAKNTVYLQMNSLKPEDTAVYYCATAPYVTSRRYGPYEYWGQGTQVTVSS | low polyreactivity
27 | QVQLVESGGGLVQAGGSLRLSCAASGYARGWYRQAPGKERELVAAITSGGSTNYADSVKGRFTISRDNAKNTVYLQMNSLKPEDTAVYYCAAAYSLYGHRYDYWGQGTQVTVSS | low polyreactivity
28 | QVQLVESGGGLVQAGGSLRLSCAASGRTFVFYAMGWYRQAPGKERELVAAISSSGGSTYYADSVKGRFTISRDNAKNTVYLQMNSLKPEDTAVYYCNADFYSVGSQYGYWGQGTQVTVSS | high polyreactivity
29 | QVQLVESGGGLVQAGGSLRLSCAASGGTFMYYDMGWYRQAPGKERELVAAISSGSSTYYADSVKGRFTISRDNAKNTVYLQMNRLKQEDTAVYYCAKLHYAHYWGQGTQVTVSS | low polyreactivity
30 | QDQLVQSGGGIVQAGGSLRLSCAASGSTFILYAMGWYRQAPGKESELVAAISTSGGSTYYADSVKGRVTISRDNAKNTVYFHMNSLKPDDTAVYYCIAGLSVTHGTSIPFRKYEYWGQGTQVNVSS | low polyreactivity
31 | QVQLVESGGGLVQAGGSLRLSCAASGLIFVHYDMGWYRQAPGKERELVAAISAGGGSTYYADSVKGRFTISRYNSKNTVYLQMNSLLPEDTAVYYCIARVVNYFRPRTGAREYDFWGQGTQGTVSS | high polyreactivity
32 | QDQLVESGGGLVQAGGSLRLSCAASGRTFGYNAMGWYRQAPGKERELVAANNWSGASTYYADSVKGRFTISRDNAKNTVYLQMNSLKPDDSAVYYCAADYSYIYGFDYWGQGTQVTVSS | low polyreactivity
33 | QVQLVESGGGLVQAGGSLRLSCAASGSIFTHNAMGWYRQAPGKERVLVAAISSGGSTNYADSVKGRFTISRDNAKNTVYLQMNSLKPEDTAVYYCAKSIDGWYWRRRRYDYWGQGTQVTVSS | low polyreactivity
34 | QVQLVESGGGLVQAGGSLRLSCAASGFTFTRYALGWYRQAPGKERELVAAISWSGGSTYYADSVKGRFTISRDNAKNTVYLQMNSLKPEDTAVYYCAKRGTVRQGGYGYWGQGTQVTVSS | high polyreactivity
35 | QVQLVESGGGLVQAGGSLRLSCAASGSTFRLYTKGWYRQAPGKERELVAAISVSGVSTYYADSVKGRFTISRDNAKNTVYVQMNSLKPEDTAVYYCAKRGYLFLRGSVRVGYNYWGQGTQVTVSS | low polyreactivity
36 | QVQLVESGGGLVQAGGSLRLSCAASGSIFYFNAMGWYRQAPGKERELVAGISARGGSTYYADSVKGRFTISRDNAKNTVYLQMNSLKPEDTAVYYCAAYGTTRSRKRGFAWWGYDYWGQGTQVTVSS | low polyreactivity
37 | QVQLVESGGGLVQAGGSLRLSCAASGITFTSYVMGWYRQAPGKERELVAAIRWSGGRTYYADSVKGRFTISRDNAKNTVYLQINSLKPEDTAVYYCAAYPSYYGDSGLRYDYWGQGTQVTVSS | high polyreactivity
38 | QVQLVESGGGLVQAGGSLRLSCAASGFIFYKNAMGWYRQAPGKERELVADISKRGASTYYADSVKGRFTISRDNAKNTVYLQMNSLKPEDTAVYYCAAGYYRASTTVTHGGIEGDSWGQGTQVTVSS | high polyreactivity
39 | QVQLVESGGGLVQAGGSLRLSCAASGRTFVIYDMGWYRQAHGKERELVAGITRSGGSTYADSVKGRFTISRDNAKNTVYLQMNSLKPEDTAVYYGARRKLYHKSPYDYWGQGTQVTVSS | low polyreactivity
40 | QVQLVESGGGLVQAGGSLRLSCAASGSTVGHYAMGWYRQAPGKERELVAAISVSGGSTYYADSVKGRFTISRDTAKNTVYLQMNSLKPEDTAVYYCAREYAHLSFLSTSSDYWGQGTQVTVSS | low polyreactivity
41 | QVHLQEIGGGLVQAGGSLRQSCAASGTISDSGLMGWYRQAPGKERELVAGISSGGITNYADSVKGRFTISRDNAKNTVYLQMNSLKPEDTAVYWGQGTQVTVSS | low polyreactivity
42 | QVQLVESGGGLVQAGGRLRLSCAASGRTFRGNVMGWYRQAPGKEREFVAAITKSDGSTYYADSVKGRFTISRDNAKNTVYLQMNSLKPEDTAVYYCAARTGRTGWPWFRYDYWGQGTQVTVSS | low polyreactivity
43 | QVQLVESGGGLVQAGGSLRLSCAASGYIFNGNAMGWYRQAPGKERELVATITRRGGSTYYADSVKGRFTISRDNAKNTVYLQMNSLKPEDTAVYYCNKRDYSGDYYGPLDYWGQGTQVTVSS | high polyreactivity
